# Data published in paper PMC7744796, “Prolyl isomerization controls activation kinetics of a cyclic nucleotide-gated ion channel” (Nature Communications, 2020).
# Values joined by “and” are separate entries in the source; they are usually repeats but may differ in a detail not shown here. Identical values can stand only once.
# Experiments:
# [1] = test system: WT SthK; experiment: Stopped-flow Tl+ flux assay, WT SthK in proteo-liposomes; type: biochemical, Spirochaeta thermophila; parameters: key to averaged rate: normalized Tl+ influx rate at 2 ms (unitless, relative)
# Source text: (§1) In all cyclic nucleotide-gated channels the connection between the C-linker and the CNBD is formed by a helix-loop-helix motif called the siphon. […] This proline had not been previously implicated in prolyl isomerization in HCN channels or SthK. Due to steric restrictions and the lack of an amide-proton, prolines are only rarely found at the C-termini of α-helices[20],[21]. To test whether this unusual proline (Pro300, Fig. 1a, b) plays a role in channel activation, we employed a fluorescence-based stopped-flow assay to measure activation kinetics of a SthK mutant where the proline was substituted by an alanine.
# (§2) All stopped-flow experiments were performed at 25 °C using a SX.20 sequential mixing fluorescence spectrophotometer (Applied Photophysics, Leatherhead, UK) controlled using ProDataSX as described before. In order to prepare liposomes for the Tl^+ flux assays 15 mg of DOPC:POPG:Cardiolipin (5:3:2, w/w/w) in chloroform were dried to a thin film in glass tubes under constant N2 flow and further dried under vacuum overnight. […] The sample was incubated at 21 °C under constant agitation for 3 h, the supernatant was transferred to a new glass tube and stored at 13 °C overnight. […] The liposome solution was diluted 5-times in sample buffer right before the experiments to ensure a good signal-to-noise ratio.
# (§3) For the time course of activation in the presence of PPIases 2 µM of enzyme were added to the liposome solution and incubated for at least 10 min before the experiment yielding 1 µM of enzyme in the aging loop (after the first mixing event).
# (§4) During one experiment, at least seven technical repeats were performed for each data point, every repeat was visually inspected for its quality, mixing artifacts were sorted out and the remaining repeats (typically 6–7 technical repeats) were analyzed separately in Matlab using a stretched exponential function (Eq. (2)) and the rate of Tl^+ influx into liposomes was calculated at 2 ms according to Eq. (3). 5000 data points were recorded over 1 s, however, to obtain the initial rate of Tl^+ influx only the first 100 ms were analyzed. The use of a stretched exponential function is necessary since the sizes of the liposomes vary and different amounts of channel proteins can be incorporated in different liposomes.2 Ft=F∞+F0−F∞⋅e^−t/τ^β 3 kt=β/τ⋅0.002s/τ^β−1 with Ft, F∞, F0 being the fluorescence at time t, the final fluorescence and the initial fluorescence, respectively. t is the time (in s), τ the time constant (in s) and β the stretched exponential factor. kt is the calculated rate (in s^−1) of Tl^+ influx at 2 ms.
# (§5) The calculated rates kt were then averaged and the standard deviation (S.D.) was determined. Each experiment was independently repeated at least three times, the obtained rate constants were normalized, averaged and the S.D. was determined.
# (§6) All further analysis was performed in GraFit. For the time course of channel activation, the rates were plotted as a function of the delay time in the first mixing step and fitted according to a double exponential.
# [2] = test system: SthK P300A; experiment: Stopped-flow Tl+ flux assay, SthK P300A in proteo-liposomes; type: biochemical, Spirochaeta thermophila; settings: SthK P300A + SlyD; for averaged rate: mean of normalized rates; for normalized rate: single replicates
# Source text: as §1, §2, §3, §4, §5, §6
# [3] = test system: Abz-Ala-Leu-Pro-Phe-pNA; experiment: Peptide-based isomerization assay, PPIase activity, Leu substrate; type: biochemical
# Description: (§7) To determine the activity of PPIases, peptides with either Leu or Glu preceding the Pro were used. Buffer and the desired concentration of PPIase were mixed in a QS quartz cuvette (Hellma Analytics) and incubated for 2 min under constant stirring. Peptide was added and the fluorescence increase was monitored.
# [4] = test system: Abz-Ala-Glu-Pro-Phe-pNA; experiment: Peptide-based isomerization assay, PPIase activity, Glu substrate; type: biochemical
# Description: as §7
# [5] = 1 µM PPIase, 100 µM cAMP, delay time 0.012 s
# [6] = 1 µM PPIase, 100 µM cAMP, delay time 0.050 s
# [7] = 1 µM PPIase, 100 µM cAMP, delay time 0.100 s
# [8] = 1 µM PPIase, 100 µM cAMP, delay time 0.500 s
# [9] = 1 µM PPIase, 100 µM cAMP, delay time 1.000 s
# [10] = 1 µM PPIase, 100 µM cAMP, delay time 2.500 s
# [11] = 1 µM PPIase, 100 µM cAMP, delay time 5.000 s
# [12] = 1 µM PPIase, 100 µM cAMP, delay time 10.000 s
# [13] = [PPIase] 10 pM, 12 ms with 100 µM cAMP
# [14] = [PPIase] 100 pM, 12 ms with 100 µM cAMP
# [15] = [PPIase] 1e-8 M, 12 ms with 100 µM cAMP
# [16] = [PPIase] 1e-7 M, 12 ms with 100 µM cAMP
# [17] = [PPIase] 1e-6 M, 12 ms with 100 µM cAMP
# [18] = [PPIase] 1e-5 M, 12 ms with 100 µM cAMP
molecule,measurement,setting,value
"SlyD: bacterial FKBP-type isomerase (UniProt P0A9K9, residues 1–165) (protein, UniProt P0A9K9 1-165, looked up, fragment) MKVAKDLVVSLAYQVRTEDGVLVDESPVSAPLDYLHGHGSLISGLETALEGHEVGDKFDVAVGANDAYGQYDENLVQRVPKDVFMGVDELQVGMRFLAETDQGPVPVEITAVEDDHVVVDGNHMLAGQNLKFNVEVVAIREATEEELAHGHVHGAHDHHHDHDHD",averaged rate,[1]; [5],1.130
same,normalized rate,[1]; [5],0.993 and 1.357 and 1.239 and 1.025 and 1.202 and 0.960
same,averaged rate,[1]; [6],1.035
same,normalized rate,[1]; [6],1.008 and 0.974 and 1.215 and 1.144 and 1.115 and 0.926 and 0.860
same,averaged rate,[1]; [7],0.965
same,normalized rate,[1]; [7],0.986 and 0.930 and 0.972 and 1.038 and 1.181 and 0.964 and 0.683
same,normalized rate,"[1]; 1 µM PPIase, 100 µM cAMP, delay time 0.250 s",0.815 and 0.934 and 1.134 and 1.296 and 1.074 and 0.872
same,averaged rate,[1]; [8],0.978
same,normalized rate,[1]; [8],0.911 and 0.879 and 0.973 and 1.305 and 0.757 and 1.021 and 1.000
same,averaged rate,[1]; [9],0.917
same,normalized rate,[1]; [9],0.846 and 1.000 and 0.945 and 0.918 and 0.791 and 0.664
same,averaged rate,[1]; [10],0.942
same,normalized rate,[1]; [10],0.974 and 0.975 and 0.900 and 0.886 and 0.933 and 1.068
same,averaged rate,[1]; [11],1.014
same,normalized rate,[1]; [11],0.948 and 0.912 and 0.942 and 1.000 and 1.421 and 0.879
same,averaged rate,[1]; [12],0.922
same,normalized rate,[1]; [12],1.000 and 0.963 and 0.916 and 0.966 and 0.900 and 0.827 and 0.883
same,effect on SthK activation (slow activation phase),"[1]; 1 µM protein, 100 µM cAMP",abolished
same,EC50,"[1]; PPIase concentration dependence of normalized Tl+ flux rate, 12 ms incubation with 100 µM cAMP",~30 nM
same,averaged rate,[1]; [13],0.622
same,normalized rate,[1]; [13],0.592 and 0.562 and 0.636 and 0.697
same,averaged rate,[1]; [14],0.685
same,normalized rate,[1]; [14],0.710 and 0.760 and 0.585
same,normalized rate,"[1]; [PPIase] 1e-9 M, 12 ms with 100 µM cAMP",0.755 and 0.566 and 0.775 and 0.750
same,averaged rate,[1]; [15],0.814
same,normalized rate,[1]; [15],0.965 and 0.565 and 0.822 and 0.905
same,averaged rate,[1]; [16],0.961
same,normalized rate,[1]; [16],1.083 and 0.844 and 0.962 and 0.956
same,averaged rate,[1]; [17],0.999
same,normalized rate,[1]; [17],1.000 and 0.992 and 1.006
same,averaged rate,[1]; [18],1.000
same,normalized rate,[1]; [18],1.000
same,averaged rate,[2]; delay time 0.010 s,1.007
same,normalized rate,[2]; delay time 0.010 s,1.011 and 0.947
same,averaged rate,[2]; delay time 0.025 s,0.973
same,normalized rate,[2]; delay time 0.025 s,0.800
same,averaged rate,[2]; delay time 0.050 s,0.981
same,normalized rate,[2]; delay time 0.050 s,0.892 and 1.105
same,averaged rate,[2]; delay time 0.100 s,0.894
same,normalized rate,[2]; delay time 0.100 s,1.000 and 0.795 and 0.887
same,averaged rate,[2]; delay time 0.250 s,1.060
same,normalized rate,[2]; delay time 0.250 s,1.026 and 1.272 and 0.881
same,averaged rate,[2]; delay time 0.500 s,1.153
same,normalized rate,[2]; delay time 0.500 s,1.146 and 1.160
same,averaged rate,[2]; delay time 1.000 s,1.068
same,normalized rate,[2]; delay time 1.000 s,1.172
same,averaged rate,[2]; delay time 2.500 s,1.001
same,normalized rate,[2]; delay time 2.500 s,1.067 and 1.000
same,averaged rate,[2]; delay time 5.000 s,0.966
same,normalized rate,[2]; delay time 5.000 s,1.000 and 0.922
same,averaged rate,[2]; delay time 10.000 s,0.867
same,normalized rate,[2]; delay time 10.000 s,0.930 and 0.866 and 0.804
same,apparent rate,"[3]; KCl, LPF substrate, 2 nM enzyme",0.041 s⁻¹ and 0.044 s⁻¹ and 0.045 s⁻¹
same,apparent rate,"[3]; KCl, LPF substrate, 5 nM enzyme",0.051 s⁻¹ and 0.061 s⁻¹ and 0.048 s⁻¹
same,apparent rate,"[3]; KCl, LPF substrate, 10 nM enzyme",0.068 s⁻¹ and 0.054 s⁻¹ and 0.069 s⁻¹
same,apparent rate,"[3]; KCl, LPF substrate, 15 nM enzyme",0.053 s⁻¹ and 0.072 s⁻¹ and 0.063 s⁻¹
same,apparent rate,"[3]; KNO3, LPF substrate, 2 nM enzyme",0.049 s⁻¹ and 0.043 s⁻¹ and 0.048 s⁻¹
same,apparent rate,"[3]; KNO3, LPF substrate, 5 nM enzyme",0.062 s⁻¹ and 0.056 s⁻¹ and 0.074 s⁻¹
same,apparent rate,"[3]; KNO3, LPF substrate, 10 nM enzyme",0.072 s⁻¹ and 0.045 s⁻¹
same,apparent rate,"[3]; KNO3, LPF substrate, 15 nM enzyme",0.062 s⁻¹ and 0.069 s⁻¹ and 0.077 s⁻¹
same,apparent rate,"[4]; KCl, EPF substrate, 2 nM enzyme",0.026 s⁻¹ and 0.024 s⁻¹
same,apparent rate,"[4]; KCl, EPF substrate, 5 nM enzyme",0.025 s⁻¹ and 0.026 s⁻¹
same,apparent rate,"[4]; KCl, EPF substrate, 10 nM enzyme",0.024 s⁻¹ and 0.025 s⁻¹
same,apparent rate,"[4]; KCl, EPF substrate, 15 nM enzyme",0.025 s⁻¹ and 0.024 s⁻¹
same,apparent rate,"[4]; KNO3, EPF substrate, 2 nM enzyme",0.023 s⁻¹ and 0.027 s⁻¹
same,apparent rate,"[4]; KNO3, EPF substrate, 5 nM enzyme",0.024 s⁻¹ and 0.029 s⁻¹ and 0.027 s⁻¹
same,apparent rate,"[4]; KNO3, EPF substrate, 10 nM enzyme",0.028 s⁻¹ and 0.024 s⁻¹ and 0.026 s⁻¹
same,apparent rate,"[4]; KNO3, EPF substrate, 15 nM enzyme",0.024 s⁻¹ and 0.027 s⁻¹
